# According to publication PMC11144241, “Nutrient levels control root growth responses to high ambient temperature in plants”:
# T1: HY5 (Arabidopsis thaliana, UniProt O24646 1-168)
# T1 sequence: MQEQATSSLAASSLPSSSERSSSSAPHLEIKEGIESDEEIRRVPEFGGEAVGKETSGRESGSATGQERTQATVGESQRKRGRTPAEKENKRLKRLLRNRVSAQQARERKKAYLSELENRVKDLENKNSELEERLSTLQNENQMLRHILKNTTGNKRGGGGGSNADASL
# Target: T1, HY5
# Assay: EMSA; EMSA according to manufacturer's protocol (Thermofisher); buffer, salt, pH and temperature not stated
# Conditions: protein: recombinant; tags: GST (pDEST15, N-terminal); label: biotin 3' end; blunt
binder,measurement,value
"pNRT1.1-EMSA (G-box probe, NRT1.1 promoter) (dsDNA) DNA 1: GAGTCACACATGTGTCACTT DNA 2: AAGTGACACATGTGTGACTC",binding result,binds
